This passage reports Kd results from article PMC9943664.

The subject of this data set is MBP-DDX3X (human). The experiment in a line: EMSA. To be noted: DDX3X EMSA: 40 mM Tris-Cl pH 8, 50 mM NaCl, 0.5 mM MgCl2, 2 mM DTT, 0.01% NP40, 2 mM AMP-PNP/MgCl2, 37 C 30 min, UV 254 nm 3 min, 6% native PAGE in 0.5x TB + ….

A word on the Kd: it is the constant that tells how readily two partners part at equilibrium.

Regarding endogenous tRNA-LysUUU/CUU, for the setting “native post-transcriptional modifications (not listed)”, the Kd is 83.4 nM.

Consider synthetic tRNA-LysUUU, for which the dissociation constant Kd (none (unmodified)) is 431 nM.
